From US20110059095A1 (Regeneron, published 2011)
Numbering of substitutions follows the chain as printed. Where no end group is shown, it is not given here. The star is where a group is joined. Biotin = O=C1N[C@H]2[C@H](CS[C@H]2CCCCC(=O)*)N1

T1: Peptide B (human PAR-2), unbiotinylated (Human)
T1 construct: also called Peptide B No Biotin
T1 peptide: SLIGKVDGTSHVTG

T2: Peptide A (human PAR-2), unbiotinylated (Human)
T2 construct: also called Peptide A No Biotin
T2 peptide: GTNRSSKGRSLIGKVDGT

T3: Peptide B (human PAR-2), C-terminal biotinylated (Human, not fully specified)
T3 construct: also called Peptide B C-Term
T3 peptide: SLIGKVDGTSHVTGGGGGS-biotin

T4: Peptide A (human PAR-2), N-terminal biotinylated (Human, N-terminal biotin via G4S linker)
T4 construct: also called Peptide A N-Term
T4 peptide: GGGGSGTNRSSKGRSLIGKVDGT

T5: Peptide C (human PAR-2), C-terminal biotinylated (Human)
T5 construct: also called Peptide C C-Term
T5 peptide: SLIGKVGGGGS-biotin

T6: Peptide C (human PAR-2), N-terminal biotinylated (Human)
T6 construct: also called Peptide C N-Term
T6 peptide: Biotin-GGGGSSLIGKV

T7: Peptide B (human PAR-2), N-terminal biotinylated (Human)
T7 construct: also called Peptide B N-Term
T7 peptide: Biotin-GGGGSSLIGKVDGTSHVTG

B1: H2M611N (antibody, V domains shown)
VH: EVQLLESGGGLVQPGGSLRLSCAASGFTFSSYAMTWVRQAPGKGLYWVSAISGSGGSAYYADSVKGRFTISRDNSKNTLYLQMNSLRAEDTAVYYCAKEGDSGYDLDYWGRGTLVTVSS
VL: DIQMTQSPSSLSASVGDRVTITCRARQGISNYLAWLQQKPGKAPKSLIYAASSLQSGVPSKFSGSGSGTDFTLTISSLQPEDFATYYCQQYKSSPLTFGGGTKVEIK
notes: chimeric: human variable, mouse constant domains
B2: H1M590N (antibody, V domains shown)
VH: EVQLVESGGGLVQPGRSLRLSCAASGFTFDDYAMHWVRQAPGKGLEWVSGITWNSGTMAYADSVKGRFTISRDNAKNSLYLQMNSLRAEDTALYYCAKENWAFDYWGQGTLVTVSS
VL: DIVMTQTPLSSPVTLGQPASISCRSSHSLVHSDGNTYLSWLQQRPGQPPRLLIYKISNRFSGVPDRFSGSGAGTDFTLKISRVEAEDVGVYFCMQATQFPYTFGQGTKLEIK
notes: as for B1
B3: H1M619N (antibody, V domains shown)
VH: B2 VH with P14A, T52S, T57S, M58R, A59G, Y80H, N84Y, A102S
VL: DIVMTQTPLSSPVTLGQPASISCRSSQSLVHSDGNTYLSWLQQRPGQPPRLLIYKISYRFSGVPDRFSGSGAGTDFTLKISRVATEDVGVYYCMQATQLPYTFGQGTKLEIK
notes: as for B1
B4: H1M616N (antibody, V domains shown)
VH: B2 VH with V12A, L20V, A23S, T28N, T52S, T57S, M58R, A59G, A97V, D104E
VL: B3 VL with Q27H, N35S, Y58N, A84E, T85A, V90L, L99F
notes: as for B1
B5: H2M614N (antibody, V domains shown)
VH: B2 VH with A40V, T57S, M58I, A59D, L93F, A97V, N100D, W101E
VL: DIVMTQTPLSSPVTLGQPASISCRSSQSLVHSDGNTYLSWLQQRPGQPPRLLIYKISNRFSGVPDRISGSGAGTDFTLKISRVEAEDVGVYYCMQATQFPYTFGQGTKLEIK
notes: as for B1
B6: H1M612N (antibody, V domains shown)
VH: B2 VH with T57N, L111R, T113I
VL: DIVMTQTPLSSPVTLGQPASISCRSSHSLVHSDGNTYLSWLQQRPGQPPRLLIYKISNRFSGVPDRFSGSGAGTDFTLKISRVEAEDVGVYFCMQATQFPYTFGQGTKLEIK
notes: as for B1
B7: H1M615N (antibody, V domains shown)
VH: EVQLVESGGGVVQPGRSLRLSCAASGFTFDDYTMHWVRQVPGKDLKWVSGITWNGGRKAYADSVKGRFTISRDNAKNSLFLQMNSLRAEDTAFYYCAKEDEAFDYWGQGTLVTVSS
VL: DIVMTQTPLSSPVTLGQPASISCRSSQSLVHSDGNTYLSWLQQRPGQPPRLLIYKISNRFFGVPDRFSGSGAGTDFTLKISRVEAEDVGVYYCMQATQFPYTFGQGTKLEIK
notes: as for B1
B8: H1M592N (antibody, V domains shown)
VH: EVQLVESGGGLVQPGRSLRLSCAASGFTFDDYAMHWVRQAPGKGLEWVSGISWNSGSIGYADSVKGRFTISRDNAKNSLYLQMNSLRAEDTALYYCAKDRFPPYKYNSGGFSDAFEIWGQGTMVTVSS
VL: not shown
notes: as for B1
B9: H1M613N (antibody, V domains shown)
VH: B8 VH
VL: not shown
notes: as for B1
B10: H1M595N (antibody, V domains shown)
VH: EVQLVESGGGLVQPGGSLRLSCAASGFTFSSYDMHWVRQVTGKGLEWVSVIGTVGDTYYPGSLKGRFTISRENAKNSLYLQMNTLRAGDTAVYYCARTGAAAHSYYYGMDVWGQGTMVTVSS
VL: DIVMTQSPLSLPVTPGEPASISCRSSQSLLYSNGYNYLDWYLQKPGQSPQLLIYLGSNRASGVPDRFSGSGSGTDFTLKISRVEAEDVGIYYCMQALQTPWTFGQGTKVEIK
notes: as for B1
B11: H2M609N (antibody, V domains shown)
VH: B2 VH with T52S, T57S, M58K, A59G, Y60F, A88V, A102S
VL: B3 VL with T36I, Y58N, A84E, T85A, V90I, T97S, Q98H, L99F
notes: as for B1
B12: H3M620N (antibody, V domains shown)
VH: EVQLVESGGNVVRPGGSLRLSCAASGFTFDDYGMTWVRQVPGKGLEWVSGINWNGGSTDYADSVKGRFTISRDNAKNSLYLQMNSLRAEDTALYYCARDKGFYGMDVWGQGTTVTVSS
VL: DIVMTQSPDSLAVSLGERATINCKSSQNPLYNSNKKKYLAWYQQKPGQPPKLVIYWASTRESGVPDRFSGSGSGTDFTLTITSLQAEDVAVYYCQQYYSTPYTFGQGTKLEIK
notes: as for B1

Target: T1, Peptide B (human PAR-2), unbiotinylated
Assay: SPR, antibody captured
Procedure: (§1) Equilibrium dissociation constants (KD values) for antigen binding to selected purified PAR-2 antibodies were determined by surface kinetics using a real-time surface plasmon resonance biosensor assay. Antibody was captured on either a rabbit anti-mouse IgG polyclonal antibody (GE Healthcare, Piscataway, N.J.) surface or a goat anti-human IgG polyclonal antibody (Jackson Immuno Research Lab, West Grove, Pa.) surface created through direct amine chemical coupling to a BIACORE™ CM5 sensor chip to form a captured antibody surface. […] Antigen-antibody binding and dissociation were monitored in real time at room temperature. Kinetic analysis was performed to calculate KD and half-life of antigen/antibody complex dissociation (Table 10). For those antibodies where no T_{1/2} value is shown, steady state analysis was used to calculate the KD value. NB: no binding observed under current experimental conditions. ND: not determined.

Binder | Kd | T1/2
B1 | 1090 nM | 1.2 min

Target: T2, Peptide A (human PAR-2), unbiotinylated
Assay: SPR, antibody captured
Procedure: as §1

Binder | Kd | T1/2
B1 | 72.8 nM | 4.1 min

Target: T2, Peptide A (human PAR-2), unbiotinylated
Assay: SPR, antibody captured, steady state
Procedure: as §1

Binder | Kd
B2 | 173 nM
B3 | 164 nM
B4 | 144 nM
B5 | 470 nM
B6 | 180 nM
B7 | 162 nM
B8 | 2100 nM
B9 | 2100 nM
B10 | 510 nM

Target: T8, full length human PAR-2 (human, UniProt P55085 26-397)
T8 construct: overexpressed on HEK293-derived 293/D9 cells; also called 293/D9/hPAR-2rec cells
Assay: cell ELISA, 10 ug/ml antibody
From the text: HEK293 cells were transfected with an NF-κB-luciferase-IRES-eGFP reporter plasmid. […] A clonal cell line, named D9, having low background levels of luciferase activity and high levels of eGFP when induced with IL-1β was made by a series of successive sorts of cell populations using flow cytometry. The 293/D9 cell line was then separately transfected with human PAR-2 or mouse PAR-2 to create the stable cell lines 293/D9/h PAR-2rec and 293/D9/m PAR-2rec, respectively.
Binding of anti-PAR-2 antibodies to 293/D9/hPAR-2rec cells was determined by ELISA. 293/D9 and 293/D9/hPAR-2rec cells were plated at a density of 5×10⁴ cells/well in media and incubated overnight at 37° C. and 5% CO₂. Purified antibody was added to the cells to a final concentration of 10 μg/ml and incubated at room temperature for one hour. Cells were then fixed and washed before detection of bound antibodies with HRP conjugated anti-mouse IgG and developed by standard colorimetric response using TMB substrate. Absorbance was read at OD₄₅₀ for 0.1 second.

T8 sequence (P55085 26-397 G138A limits assumed): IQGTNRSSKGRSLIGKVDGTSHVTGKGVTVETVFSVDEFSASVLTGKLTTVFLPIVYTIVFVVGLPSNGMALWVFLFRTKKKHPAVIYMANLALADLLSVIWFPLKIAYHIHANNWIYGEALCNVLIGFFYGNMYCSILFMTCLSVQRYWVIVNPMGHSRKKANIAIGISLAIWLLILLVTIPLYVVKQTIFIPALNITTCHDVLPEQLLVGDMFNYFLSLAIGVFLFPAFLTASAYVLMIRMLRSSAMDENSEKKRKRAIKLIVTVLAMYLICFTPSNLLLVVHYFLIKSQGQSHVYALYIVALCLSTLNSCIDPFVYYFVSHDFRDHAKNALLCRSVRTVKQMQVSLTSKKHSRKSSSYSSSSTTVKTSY

Binder | A450 ratio (293/D9/hPAR-2rec to 293/D9 cells)
B2 | 1.81
B4 | 2.78
B7 | 2.18

Target: T1, Peptide B (human PAR-2), unbiotinylated
Assay: peptide ELISA
Procedure: (§2) Anti-PAR-2 antibodies were tested for their ability to bind to the PAR-2 peptides. Various PAR-2 Peptides (Table 3) were coated onto 96-well plates at a concentration of 2 μg/ml and incubated overnight followed by blocking in a suitable blocking agent for one hour. […] Purified anti-PAR-2 antibodies were added to the plate coated with PAR-2 peptides to a final concentration ranging from 0.2 to 2.0 μg/ml and incubated for one hour at room temperature. Detection of bound antibodies was determined with Horse-Radish Peroxidase (HRP) conjugated anti-mouse or human IgG (Jackson Immuno Research Lab, West Grove, Pa.) and developed by standard colorimetric response using tetramethylbenzidine (TMB) substrate. Absorbance was read at OD₄₅₀ for 0.1 second.

Binder | OD450
B1 | 1 to 4 od
B2 | 0 to 0.09 od
B3 | 0 to 0.09 od
B11 | 0 to 0.09 od
B4 | 0 to 0.09 od
B5 | 0 to 0.09 od
B6 | 0 to 0.09 od
B12 | 0 to 0.09 od
B7 | 0 to 0.09 od
B10 | 0 to 0.09 od

Target: T3, Peptide B (human PAR-2), C-terminal …
Assay: peptide ELISA
Procedure: as §2

Binder | OD450
B1 | 1 to 4 od
B2 | 0 to 0.09 od
B3 | 0 to 0.09 od
B11 | 0 to 0.09 od
B4 | 0 to 0.09 od
B5 | 0 to 0.09 od
B6 | 0 to 0.09 od
B12 | 0 to 0.09 od
B7 | 0 to 0.09 od
B10 | 0 to 0.09 od

Target: T4, Peptide A (human PAR-2), N-terminal …
Assay: peptide ELISA
Procedure: as §2

Binder | OD450
B1 | 1 to 4 od
B2 | 1 to 4 od
B3 | 1 to 4 od
B11 | 1 to 4 od
B4 | 1 to 4 od
B5 | 1 to 4 od
B6 | 1 to 4 od
B12 | 0.5 to 0.99 od
B7 | 1 to 4 od
B8 | 1 to 4 od
B9 | 1 to 4 od
B10 | 1 to 4 od

Target: T5, Peptide C (human PAR-2), C-terminal …
Assay: peptide ELISA
Procedure: as §2

Binder | OD450
B1 | 0 to 0.09 od
B2 | 0 to 0.09 od
B3 | 0 to 0.09 od
B11 | 0 to 0.09 od
B4 | 0 to 0.09 od
B5 | 0 to 0.09 od
B6 | 0 to 0.09 od
B12 | 0 to 0.09 od
B7 | 0 to 0.09 od

Target: T6, Peptide C (human PAR-2), N-terminal …
Assay: peptide ELISA
Procedure: as §2

Binder | OD450
B1 | 0 to 0.09 od
B2 | 0 to 0.09 od
B3 | 0 to 0.09 od
B11 | 0 to 0.09 od
B4 | 0 to 0.09 od
B5 | 0 to 0.09 od
B6 | 0 to 0.09 od
B12 | 0 to 0.09 od
B7 | 0 to 0.09 od
B8 | 1 to 4 od
B9 | 1 to 4 od
B10 | 0.5 to 0.99 od

Target: T9, Peptide A (human PAR-2), C-terminal biotinylated (Human, C-terminal biotin via G4S linker)
T9 construct: also called Peptide A C-Term
Assay: peptide ELISA
Procedure: as §2

Binder | OD450
B1 | 1 to 4 od
B2 | 1 to 4 od
B3 | 1 to 4 od
B11 | 1 to 4 od
B4 | 1 to 4 od
B5 | 1 to 4 od
B6 | 1 to 4 od
B12 | 1 to 4 od
B7 | 1 to 4 od
B10 | 1 to 4 od

Target: T2, Peptide A (human PAR-2), unbiotinylated
Assay: peptide ELISA
Procedure: as §2

Binder | OD450
B1 | 1 to 4 od
B2 | 1 to 4 od
B3 | 1 to 4 od
B11 | 1 to 4 od
B4 | 1 to 4 od
B5 | 0.5 to 0.99 od
B6 | 1 to 4 od
B12 | 1 to 4 od
B7 | 1 to 4 od
B8 | 1 to 4 od
B9 | 1 to 4 od
B10 | 1 to 4 od

Target: T7, Peptide B (human PAR-2), N-terminal …
Assay: peptide ELISA
Procedure: as §2

Binder | OD450
B1 | 1 to 4 od
B2 | 0 to 0.09 od
B3 | 0 to 0.09 od
B11 | 0 to 0.09 od
B4 | 0 to 0.09 od
B5 | 0 to 0.09 od
B6 | 0 to 0.09 od
B12 | 0 to 0.09 od
B7 | 0 to 0.09 od
B8 | 0.5 to 0.99 od
B9 | 0.5 to 0.99 od
B10 | 0 to 0.09 od

Target: T3, Peptide B (human PAR-2), C-terminal …
Assay: SPR, peptide immobilized
Procedure: (§3) In another series of experiments, equilibrium dissociation constants (KD values) for purified antibody binding to selected biotinylated and unbiotinylated forms of PAR-2 peptides were determined by surface kinetics using a real-time surface plasmon resonance biosensor assay. Neutravidin (Pierce, Rockford, Ill.) was covalently coupled to the surface of a Biacore™ C1 chip or CM5 chip using amine coupling chemistry. Biotinylated (N-Term or C-Term) PAR-2 peptides (Peptides A and B) were immobilized on the surface via the high affinity binding interaction between biotin and the amine coupled Neutravidin.
(§4) In a first experiment using this format, varying concentrations (ranging from 5 to 100 μg/ml) of purified antibody were injected at a rate of 50 μl/min over a surface coated with immobilized peptide at low-density (<1RU) for 300 seconds. Antibody-peptide binding and dissociation was monitored in real time 25° C.

Binder | binding result
B2 | no binding (tested: 5 to 100 ug/ml antibody)

Target: T9, Peptide A (human PAR-2), C-terminal …
Assay: SPR, peptide immobilized
Procedure: as §3, §4

Binder | Kd | T1/2
B2 | 1.27 nM | 13 min
